In patent US20250051476A1 (ABDERA THERAPEUTICS, published 2025):

T1: mouse DLL3 (mouse, UniProt O88516 25-477, limits assumed)
T1 construct: also called mDLL3; murine DLL3
T1 sequence (looked up): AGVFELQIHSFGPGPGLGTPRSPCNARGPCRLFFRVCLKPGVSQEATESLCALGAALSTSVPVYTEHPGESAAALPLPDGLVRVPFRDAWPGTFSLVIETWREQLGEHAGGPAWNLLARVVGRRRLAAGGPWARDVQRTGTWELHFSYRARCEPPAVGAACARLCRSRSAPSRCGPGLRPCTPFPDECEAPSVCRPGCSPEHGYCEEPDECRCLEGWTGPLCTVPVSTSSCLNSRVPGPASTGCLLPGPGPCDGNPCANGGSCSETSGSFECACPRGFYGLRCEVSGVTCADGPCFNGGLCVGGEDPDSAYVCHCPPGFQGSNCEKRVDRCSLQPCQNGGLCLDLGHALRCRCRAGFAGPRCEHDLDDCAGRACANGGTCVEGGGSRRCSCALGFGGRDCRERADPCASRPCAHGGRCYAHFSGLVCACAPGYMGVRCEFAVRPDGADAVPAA

T2: human DLL3 (human, UniProt Q9NYJ7 27-492, limits assumed)
T2 construct: also called hDLL3; Delta-like protein 3
T2 sequence (looked up): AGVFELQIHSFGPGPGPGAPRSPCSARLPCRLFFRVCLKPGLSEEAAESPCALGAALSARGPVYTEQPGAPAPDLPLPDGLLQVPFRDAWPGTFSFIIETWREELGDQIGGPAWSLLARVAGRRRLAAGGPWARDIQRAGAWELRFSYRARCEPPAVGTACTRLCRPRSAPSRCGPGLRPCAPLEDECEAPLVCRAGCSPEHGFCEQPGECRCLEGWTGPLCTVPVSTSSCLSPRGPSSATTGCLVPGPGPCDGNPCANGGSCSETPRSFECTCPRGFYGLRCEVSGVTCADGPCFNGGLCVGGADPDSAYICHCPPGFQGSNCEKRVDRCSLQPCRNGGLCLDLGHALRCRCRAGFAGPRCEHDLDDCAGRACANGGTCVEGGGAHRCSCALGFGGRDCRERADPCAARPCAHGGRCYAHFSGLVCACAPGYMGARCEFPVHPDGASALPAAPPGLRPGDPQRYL


Legend:
mouse DLL3 = molecular target: T1, mouse DLL3; experiment: ELISA
human DLL3 = molecular target: T2, human DLL3; experiment: ELISA

Row | binding result (mouse DLL3) | binding result (human DLL3) | Binder
1 | no binding | no binding | 24_zu4 (Fc fusion, Humanized VHH-Fc) QVQLVESGGGLVQPGGSLRLSCAASGFTFSSYRINWYRQAPGQGRELVASITDTGSTNYADSVKGRFTISRDNSKNTLYLQMNSLRAEDTAVYYCAAPTIAAYWGQGTLVTVSSEPKSSDKTHTCPPCPAPEAEGAPSVFLFPPKPKDTLMISRTPEVTCVVVDVSHEDPEVKFNWYVDGVEVHNAKTKPREEQYNSTYRVVSVLTVLHQDWLNGKEYKCKVSNKALPSSIEKTISKAKGQPREPQVYTLPPSREEMTKNQVSLTCLVKGFYPSDIAVEWESNGQPENNYKTTPPVLDSDGSFFLYSKLTVDKSRWQQGNVFSCSVMHEALHNQYTQKSLSLSPG
2 | no binding | no binding | 24_zu3 (Fc fusion, Humanized VHH-Fc) QVQLVESGGGLVQPGGSLRLSCAASGFTFSSYRINWYRQAPGQGLELVASITDTGSTNYADSVKGRFTISRDNSKNTLYLQMNSLRAEDTAVYYCAAPTIAAYWGQGTLVTVSSEPKSSDKTHTCPPCPAPEAEGAPSVFLFPPKPKDTLMISRTPEVTCVVVDVSHEDPEVKFNWYVDGVEVHNAKTKPREEQYNSTYRVVSVLTVLHQDWLNGKEYKCKVSNKALPSSIEKTISKAKGQPREPQVYTLPPSREEMTKNQVSLTCLVKGFYPSDIAVEWESNGQPENNYKTTPPVLDSDGSFFLYSKLTVDKSRWQQGNVFSCSVMHEALHNQYTQKSLSLSPG
3 | no binding | no binding | 24_zu5 (Fc fusion, Humanized VHH-Fc) QVQLVESGGGLVQPGGSLRLSCAASGFTFSSYRINWYRQPPGKGRELVGSITDTGSTNYADSVKGRFTISRDNSKNTLYLQMNSLRAEDTAVYYCAAPTIAAYWGQGTLVTVSSEPKSSDKTHTCPPCPAPEAEGAPSVFLFPPKPKDTLMISRTPEVTCVVVDVSHEDPEVKFNWYVDGVEVHNAKTKPREEQYNSTYRVVSVLTVLHQDWLNGKEYKCKVSNKALPSSIEKTISKAKGQPREPQVYTLPPSREEMTKNQVSLTCLVKGFYPSDIAVEWESNGQPENNYKTTPPVLDSDGSFFLYSKLTVDKSRWQQGNVFSCSVMHEALHNQYTQKSLSLSPG
4 | no binding | no binding | 24_zu2 (Fc fusion, Humanized VHH-Fc) QVQLVESGGGLVQPGGSLRLSCAASGFTFSSYRINWFRQAPGQGLELVASITDTGSTNYADSVKGRFTISRDNSKNTLYLQMNSLRAEDTAVYYCAAPTIAAYWGQGTLVTVSSEPKSSDKTHTCPPCPAPEAEGAPSVFLFPPKPKDTLMISRTPEVTCVVVDVSHEDPEVKFNWYVDGVEVHNAKTKPREEQYNSTYRVVSVLTVLHQDWLNGKEYKCKVSNKALPSSIEKTISKAKGQPREPQVYTLPPSREEMTKNQVSLTCLVKGFYPSDIAVEWESNGQPENNYKTTPPVLDSDGSFFLYSKLTVDKSRWQQGNVFSCSVMHEALHNQYTQKSLSLSPG
5 |  | binds | 24_zu1 (Fc fusion, Humanized VHH-Fc) QVQLVESGGGLVQPGGSLRLSCAASGFTFSSYRINWFRQAPGQGLEAVASITDTGSTNYADSVKGRFTISRDNSKNTLYLQMNSLRAEDTAVYYCAAPTIAAYWGQGTLVTVSSEPKSSDKTHTCPPCPAPEAEGAPSVFLFPPKPKDTLMISRTPEVTCVVVDVSHEDPEVKFNWYVDGVEVHNAKTKPREEQYNSTYRVVSVLTVLHQDWLNGKEYKCKVSNKALPSSIEKTISKAKGQPREPQVYTLPPSREEMTKNQVSLTCLVKGFYPSDIAVEWESNGQPENNYKTTPPVLDSDGSFFLYSKLTVDKSRWQQGNVFSCSVMHEALHNQYTQKSLSLSPG
6 |  | binds | 107_zu1 (Fc fusion, Humanized VHH-Fc) QVQLVESGGGLVQPGGSLRLSCAASDRTFSSYAVGWFRQAPGQGLEAVAAISWNGGRTLYTDSVTGRFTISRDNSKNTLYLQMNSLRAEDTAVYYCAARPAAPTRRLEYDYWGQGTLVTVSSEPKSSDKTHTCPPCPAPEAEGAPSVFLFPPKPKDTLMISRTPEVTCVVVDVSHEDPEVKFNWYVDGVEVHNAKTKPREEQYNSTYRVVSVLTVLHQDWLNGKEYKCKVSNKALPSSIEKTISKAKGQPREPQVYTLPPSREEMTKNQVSLTCLVKGFYPSDIAVEWESNGQPENNYKTTPPVLDSDGSFFLYSKLTVDKSRWQQGNVFSCSVMHEALHNQYTQKSLSLSPG
7 | no binding | no binding | 100_zu4 (Fc fusion, Humanized VHH-Fc) QVQLVESGGGLVQPGGSLRLSCAASGIVFNSDVMGWYRQAPGQPRELVATITGGGSTNYATSVKGRFTISRDNSKNTLYLQMNSLRAEDTAVYYCAARRGDSMLAFWGQGTLVTVSSEPKSSDKTHTCPPCPAPEAEGAPSVFLFPPKPKDTLMISRTPEVTCVVVDVSHEDPEVKFNWYVDGVEVHNAKTKPREEQYNSTYRVVSVLTVLHQDWLNGKEYKCKVSNKALPSSIEKTISKAKGQPREPQVYTLPPSREEMTKNQVSLTCLVKGFYPSDIAVEWESNGQPENNYKTTPPVLDSDGSFFLYSKLTVDKSRWQQGNVFSCSVMHEALHNQYTQKSLSLSPG
8 | no binding | no binding | 100_zu2 (Fc fusion, Humanized VHH-Fc) QVQLVESGGGLVQPGGSLRLSCAASGIVFNSDVMGWFRQAPGQGLELVATITGGGSTNYATSVKGRFTISRDNSKNTLYLQMNSLRAEDTAVYYCAARRGDSMLAFWGQGTLVTVSSEPKSSDKTHTCPPCPAPEAEGAPSVFLFPPKPKDTLMISRTPEVTCVVVDVSHEDPEVKFNWYVDGVEVHNAKTKPREEQYNSTYRVVSVLTVLHQDWLNGKEYKCKVSNKALPSSIEKTISKAKGQPREPQVYTLPPSREEMTKNQVSLTCLVKGFYPSDIAVEWESNGQPENNYKTTPPVLDSDGSFFLYSKLTVDKSRWQQGNVFSCSVMHEALHNQYTQKSLSLSPG
9 | no binding | no binding | 100_zu3 (Fc fusion, Humanized VHH-Fc) QVQLVESGGGLVQPGGSLRLSCAASGIVFNSDVMGWYRQAPGQGLELVATITGGGSTNYATSVKGRFTISRDNSKNTLYLQMNSLRAEDTAVYYCAARRGDSMLAFWGQGTLVTVSSEPKSSDKTHTCPPCPAPEAEGAPSVFLFPPKPKDTLMISRTPEVTCVVVDVSHEDPEVKFNWYVDGVEVHNAKTKPREEQYNSTYRVVSVLTVLHQDWLNGKEYKCKVSNKALPSSIEKTISKAKGQPREPQVYTLPPSREEMTKNQVSLTCLVKGFYPSDIAVEWESNGQPENNYKTTPPVLDSDGSFFLYSKLTVDKSRWQQGNVFSCSVMHEALHNQYTQKSLSLSPG
10 | no binding | binds | 186_zu3 (Fc fusion, Humanized VHH-Fc) QVQLVESGGGLVQPGGSLRLSCAASGFDFSTYTVNWYRQAPGQGLEKVARISSTGTTTNYANSAKGRFTISRDNSKNTLYLQMNSLRAEDTAVYYCAAERFDSNYWGQGTLVTVSSEPKSSDKTHTCPPCPAPEAEGAPSVFLFPPKPKDTLMISRTPEVTCVVVDVSHEDPEVKFNWYVDGVEVHNAKTKPREEQYNSTYRVVSVLTVLHQDWLNGKEYKCKVSNKALPSSIEKTISKAKGQPREPQVYTLPPSREEMTKNQVSLTCLVKGFYPSDIAVEWESNGQPENNYKTTPPVLDSDGSFFLYSKLTVDKSRWQQGNVFSCSVMHEALHNQYTQKSLSLSPG
11 | no binding | binds | 186_zu5 (Fc fusion, Humanized VHH-Fc) QVQLVESGGGLVQPGGSLRLSCAASGFDFSTYTVNWYRQAPGKEREKVARISSTGTTTNYANSAKGRFTISRDNSKNTLYLQMNSLRAEDTAVYYCAAERFDSNYWGQGTLVTVSSEPKSSDKTHTCPPCPAPEAEGAPSVFLFPPKPKDTLMISRTPEVTCVVVDVSHEDPEVKFNWYVDGVEVHNAKTKPREEQYNSTYRVVSVLTVLHQDWLNGKEYKCKVSNKALPSSIEKTISKAKGQPREPQVYTLPPSREEMTKNQVSLTCLVKGFYPSDIAVEWESNGQPENNYKTTPPVLDSDGSFFLYSKLTVDKSRWQQGNVFSCSVMHEALHNQYTQKSLSLSPG
12 | no binding | binds | 186_zu4 (Fc fusion, Humanized VHH-Fc) QVQLVESGGGLVQPGGSLRLSCAASGFDFSTYTVNWYRQAPGQEREKVARISSTGTTTNYANSAKGRFTISRDNSKNTLYLQMNSLRAEDTAVYYCAAERFDSNYWGQGTLVTVSSEPKSSDKTHTCPPCPAPEAEGAPSVFLFPPKPKDTLMISRTPEVTCVVVDVSHEDPEVKFNWYVDGVEVHNAKTKPREEQYNSTYRVVSVLTVLHQDWLNGKEYKCKVSNKALPSSIEKTISKAKGQPREPQVYTLPPSREEMTKNQVSLTCLVKGFYPSDIAVEWESNGQPENNYKTTPPVLDSDGSFFLYSKLTVDKSRWQQGNVFSCSVMHEALHNQYTQKSLSLSPG
